What all share (experiment): SPR
(In general: In SPR one partner is held on a chip, and binding of the other changes the refractive index at the surface.)

One assay deals with T1, CD147 D65A (human).
T1 chain: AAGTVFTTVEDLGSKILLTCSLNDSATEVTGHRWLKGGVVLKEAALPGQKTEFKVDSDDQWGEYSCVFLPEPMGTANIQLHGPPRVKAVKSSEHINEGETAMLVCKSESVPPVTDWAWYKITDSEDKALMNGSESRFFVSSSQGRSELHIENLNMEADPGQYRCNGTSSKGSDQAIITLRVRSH

The next assay has as its target T2, CD147 L62A (human).
T2 chain: T1 chain with L41A, A44D

For the next assay, the target named is T3, CD147 K63A (human).
T3 chain: T1 chain with K42A, A44D

A further assay has as its target T4, CD147 E64A (human).
T4 chain: T1 chain with E43A, A44D

In assay [1] the target is T5, ectodomain of CD147 (CD147_(ecto)), wild type (human).
T5 chain: T1 chain with A44D

The target in assay [2] is T6, CD147 K63A/D65A double mutant (human).
T6 chain: T1 chain with K42A

The target of a further assay is CD147 V61A.

Residue numbers refer to the chain shown, from its start.

What is called Kd is a measure of binding affinity in units of concentration. A high value points to lower affinity.

B1: anti-CD147 mAb 5A12 (antibody, V domains shown)
VH: EVKLEESGGGLVQPGGSMKLSCVASGFTFSNYWMHWVRQSPEKGLEWVAEIRLKSINYATHYAESVKGRFTISRDDSKSSVYLQMNNLRTEDTGIYYCTSYDYEYWGQGTLITVSA
VL: NIVMTQSPKSMSMSVGERVTLSCKASEIVGTYVSWYQQKPEQSPKLLIYGASNRYTGVPDRFTGSGSATDFTLTISSVQAEDLADYHCGQSYSYPFTFGSGTKLEIK
For B1, the Kd in the assay with CD147 D65A worked out at 12.7 nM; in the assay with CD147 L62A, 2.71 nM; with CD147 K63A, 576 nM; in the assay with CD147 E64A, 7.07 nM; in assay [1], 0.566 nM; in assay [2] it was 115 nM. For the same molecule, binding with CD147 V61A was put at a Kd of 0.97 nM.

(Values after PMC6804595 (2018).)
